Experimental data as given in paper PMC6557901, “Rif1 S-acylation mediates DNA double-strand break repair at the inner nuclear membrane”.

Target: T1, Rif1 NTD (100-1322) wild-type (Saccharomyces cerevisiae, UniProt P29539 100-1322)
T1 sequence: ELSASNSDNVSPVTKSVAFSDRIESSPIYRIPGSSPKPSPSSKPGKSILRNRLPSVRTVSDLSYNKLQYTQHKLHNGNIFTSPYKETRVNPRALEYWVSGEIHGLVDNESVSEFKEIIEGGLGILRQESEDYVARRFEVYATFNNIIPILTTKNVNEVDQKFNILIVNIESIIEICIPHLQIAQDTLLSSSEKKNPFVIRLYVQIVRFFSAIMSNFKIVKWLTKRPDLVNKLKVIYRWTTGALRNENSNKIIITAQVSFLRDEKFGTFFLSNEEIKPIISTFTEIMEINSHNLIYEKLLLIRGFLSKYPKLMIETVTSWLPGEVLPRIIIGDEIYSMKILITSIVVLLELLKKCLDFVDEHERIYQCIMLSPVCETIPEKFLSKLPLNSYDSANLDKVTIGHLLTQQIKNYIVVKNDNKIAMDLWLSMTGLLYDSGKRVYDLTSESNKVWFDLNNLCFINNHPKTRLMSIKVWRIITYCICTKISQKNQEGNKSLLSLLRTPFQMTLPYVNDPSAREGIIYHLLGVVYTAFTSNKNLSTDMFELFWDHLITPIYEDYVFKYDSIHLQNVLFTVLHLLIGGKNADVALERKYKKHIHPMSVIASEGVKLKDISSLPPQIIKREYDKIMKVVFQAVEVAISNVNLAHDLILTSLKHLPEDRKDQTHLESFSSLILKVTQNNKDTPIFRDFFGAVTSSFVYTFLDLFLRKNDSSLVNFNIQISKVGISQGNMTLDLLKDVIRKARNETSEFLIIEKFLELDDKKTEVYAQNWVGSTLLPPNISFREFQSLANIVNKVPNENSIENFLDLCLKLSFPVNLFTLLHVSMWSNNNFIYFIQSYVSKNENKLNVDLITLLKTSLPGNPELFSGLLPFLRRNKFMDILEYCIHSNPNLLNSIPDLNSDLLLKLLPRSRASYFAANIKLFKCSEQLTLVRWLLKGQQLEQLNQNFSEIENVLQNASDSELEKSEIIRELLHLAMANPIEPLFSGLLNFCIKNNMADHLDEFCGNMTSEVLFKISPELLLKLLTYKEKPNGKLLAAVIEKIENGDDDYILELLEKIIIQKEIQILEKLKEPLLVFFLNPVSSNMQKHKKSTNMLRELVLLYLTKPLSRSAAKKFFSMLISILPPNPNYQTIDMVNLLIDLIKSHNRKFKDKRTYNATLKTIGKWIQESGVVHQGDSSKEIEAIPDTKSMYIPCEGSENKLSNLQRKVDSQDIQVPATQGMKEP
Test: EMSA; protein 10-160 nM, DNA 1 nM; 20 mM Tris-HCl pH 8.0, 100 mM NaCl, 2.5 mM MgCl2, 10 mM CaCl2, 0.1 mg/ml BSA, 1 mM TCEP, 30 min at 20 °C; 1.2% agarose gel, 0.5x TBE, 4 °C
Conditions: protein: recombinant; tags: N-terminal Strep(II); label: 5'-32P on EMSA1; blunt

B1: 30 bp dsDNA (EMSA1/EMSA2) (dsDNA)
DNA 1: TAGCAAGGCACTGGTAGAATTCGGCAGCGT
DNA 2: ACGCTGCCGAATTCTACCAGTGCCTTGCTA
B1: binds.
